Experiment [1] addresses Macaque CTLA-4 expressed on transfected T-cells (macaque). The experiment in a line: flow cytometry (FACScan) on cell line expressing recombinant macaque CTLA-4. (In general: In flow cytometry, cells or beads pass a laser one at a time.)
Experiment [2] has as its target T1, Recombinant CTLA-4 fusion protein comprising the extracellular domain of human CTLA-4 (R&D Systems Cat. … (human, UniProt P16410 36-161)).
T1 construct: extracellular domain; Bought protein; also called recombinant human CTLA-4 fusion protein; soluble CTLA-4; not shown: Factor Xa cleavage site and fusion partner (called Ig)
T1 sequence (looked up): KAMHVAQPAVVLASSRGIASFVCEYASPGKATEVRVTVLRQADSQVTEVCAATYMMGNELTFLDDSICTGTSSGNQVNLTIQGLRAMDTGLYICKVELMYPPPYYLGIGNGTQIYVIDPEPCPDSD
The experiment in a line: competitive ELISA with biotin labeled and unlabeled antibodies. An excerpt:
Competitive ELISAs were done with biotin labeled and unlabeled antibodies to determine CTLA-4 epitope specificity. Four anti-CTLA-4 epitope binding groups were identified among the human antibodies, and an additional two epitopes were defined by the commercial murine monclonal antibodies BNI3 (Pharmingen, San Diego, Calif.), and 8H5 (Ancell Corp. Bayport, Minn.).
(In general: An ELISA detects its analyte on a solid surface through an enzyme-linked reagent.)

As for isotype control (Table 5) (antibody), the MFI in experiment [1] is 4 MFI.

B1: 1E2 (human anti-CTLA-4 monoclonal antibody) (antibody, V domains shown)
VH: QVQLVESGGGVVQPGRSLRLSCAASGFTFSSYGMHWVRQAPGKGLEWVAVIWYDGSNKYYADSVKGRFTISRDNSKNTLYLQMNSLRAEDTAVFYCARAPNYIGAFDVWGQGTMVTVSS
VL: DIQMTQSPSSLSASVGDRVTITCRASQGISSWLAWYQQKPEKAPKSLIYAASSLQSGVPSRFSGSGSGTDFTLTISSLQPEDFATYYCQQYNSYPPTFGQGTKVEIK
As for B1, the binding result in experiment [2] is on record as “binds”.

The record behind these values is US20140234331A1 (published 2014).
